Measured values from the supplement of paper PMC10065799, “High-throughput profiling of sequence recognition by tyrosine kinases and SH2 domains using bacterial peptide display” (eLife, 2023).

The sequences below were run against FGFR1 (UniProt P11362) (assay: phosphorylation enrichment, bacterial display (enrichment ratio); higher = better substrate or ligand; peptides without Tyr show the background).
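Also: 11-residue human phosphosite peptides and single-mutation variants displayed on the E. coli surface, counted by deep sequencing, each peptide's frequency after selection divided by its frequency in the unselected input library; frequency after pTyr selection over input frequency; kinase dosed for 20-30% of maximal phosphorylation in three min.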

Chain of FGFR1 (P11362 whole entry, looked up): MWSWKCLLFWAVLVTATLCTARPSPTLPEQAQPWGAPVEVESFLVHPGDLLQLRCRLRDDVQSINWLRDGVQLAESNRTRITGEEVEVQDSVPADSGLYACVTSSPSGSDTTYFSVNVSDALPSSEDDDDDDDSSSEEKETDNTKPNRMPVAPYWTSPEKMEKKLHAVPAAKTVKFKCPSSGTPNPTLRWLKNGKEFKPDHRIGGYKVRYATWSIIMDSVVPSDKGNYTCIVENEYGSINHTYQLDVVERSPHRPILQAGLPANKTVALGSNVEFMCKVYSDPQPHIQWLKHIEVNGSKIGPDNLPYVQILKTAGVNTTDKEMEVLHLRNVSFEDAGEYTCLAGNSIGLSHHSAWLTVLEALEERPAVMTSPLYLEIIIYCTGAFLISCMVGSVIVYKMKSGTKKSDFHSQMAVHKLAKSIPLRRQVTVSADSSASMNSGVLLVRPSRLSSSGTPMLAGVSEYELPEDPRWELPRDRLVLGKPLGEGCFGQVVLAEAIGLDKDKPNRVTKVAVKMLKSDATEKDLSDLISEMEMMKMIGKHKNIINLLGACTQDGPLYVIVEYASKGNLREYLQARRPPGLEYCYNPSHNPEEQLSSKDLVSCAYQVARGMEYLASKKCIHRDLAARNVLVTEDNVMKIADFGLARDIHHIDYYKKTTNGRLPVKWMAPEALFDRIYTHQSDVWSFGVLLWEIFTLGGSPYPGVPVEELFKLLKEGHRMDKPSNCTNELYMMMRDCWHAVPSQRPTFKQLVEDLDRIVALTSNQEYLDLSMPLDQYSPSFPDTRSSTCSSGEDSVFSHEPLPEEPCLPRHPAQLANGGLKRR

Sequence	phosphorylation enrichment
AHAGEYGAEAL [HBA1_Y25]	0.35
ENELTYFCFKK [CD59_Y86_C89Y_YF]	1.06
QNTGYYYDLYG [PTPN11_Y62_D61Y]	21.1
SGPRRYTIAAL [TTR_Y125]	0.456
CSEEMYCLMLQ [RET_Y981_R982C]	3.5
MSLDQYSPSFP [FGFR1_Y776_P772S]	0.468
QQTYTYDSGIH [JUP_Y22]	1.12
KNKKDYFDMFE [SLC26A3_Y526_YF]	3.49
KNEVLYDGENH [ARFGEF1_Y314]	0.399
WVYNHYRWFIW [BRCA2_Y2624_I2627F]	0.406
EQWRAYLEGTC [HLA-C_Y183_L180W]	0.65
DSRRDYVSQFE [APOA1_Y53_G50R]	0.542
YIILIYAMKKK [SLCO1B1_Y645]	0.331
VDSTEYEVASQ [SLC7A7_Y7]	0.544
NVPILYTASQA [CTNNA1_Y222]	0.464
LARDMHDKEYY [MET_Y1230_Y1230H]	0.46
CTTIHYNFMCI [TP53_Y234_N239I_YF]	0.598

Sequence	phosphorylation enrichment
FVHDNYVIQRT [CPS1_Y1450_R1453Q]	0.481
EFTPLYPMLFG [SCLY_Y280]	12.8
SKQGKYLNWDA [ATM_Y54]	0.437
GKFHMYVAVWT [F13A1_Y161_R159H]	0.516
NKKHHYRELPV [ERN2_Y860]	0.826
VGGRIYTDDGL [PKLR_Y218_I219T]	0.427
GGKFSYLKVGH [GRM3_Y480_YF]	0.512
RIVEIYTRRLQ [GCH1_Y175_S176T]	0.515
FKEDPYLVVNP [MCM6_Y810_E806K_YF]	1.02
SPDMLYQYLKQ [RPAP3_Y567]	3.36
LTSKPYAFTAR [NDUFS1_Y236]	0.67
KPGLKYVTYGN [GALNTL5_Y404]	0.394
GESKDYALHVG [SVIL_Y185]	0.469
NPQKPYFIRLF [WAS_Y83_S82P_YF]	0.511
GFILMYDITNE [RAB3C_Y110]	0.49
KKCTTYIDCDL [ASPA_Y64_R63T]	0.571

These sequences were tested against FGFR3 (UniProt P22607) in the same assay as above.
Chain of FGFR3 (P22607 whole entry, looked up): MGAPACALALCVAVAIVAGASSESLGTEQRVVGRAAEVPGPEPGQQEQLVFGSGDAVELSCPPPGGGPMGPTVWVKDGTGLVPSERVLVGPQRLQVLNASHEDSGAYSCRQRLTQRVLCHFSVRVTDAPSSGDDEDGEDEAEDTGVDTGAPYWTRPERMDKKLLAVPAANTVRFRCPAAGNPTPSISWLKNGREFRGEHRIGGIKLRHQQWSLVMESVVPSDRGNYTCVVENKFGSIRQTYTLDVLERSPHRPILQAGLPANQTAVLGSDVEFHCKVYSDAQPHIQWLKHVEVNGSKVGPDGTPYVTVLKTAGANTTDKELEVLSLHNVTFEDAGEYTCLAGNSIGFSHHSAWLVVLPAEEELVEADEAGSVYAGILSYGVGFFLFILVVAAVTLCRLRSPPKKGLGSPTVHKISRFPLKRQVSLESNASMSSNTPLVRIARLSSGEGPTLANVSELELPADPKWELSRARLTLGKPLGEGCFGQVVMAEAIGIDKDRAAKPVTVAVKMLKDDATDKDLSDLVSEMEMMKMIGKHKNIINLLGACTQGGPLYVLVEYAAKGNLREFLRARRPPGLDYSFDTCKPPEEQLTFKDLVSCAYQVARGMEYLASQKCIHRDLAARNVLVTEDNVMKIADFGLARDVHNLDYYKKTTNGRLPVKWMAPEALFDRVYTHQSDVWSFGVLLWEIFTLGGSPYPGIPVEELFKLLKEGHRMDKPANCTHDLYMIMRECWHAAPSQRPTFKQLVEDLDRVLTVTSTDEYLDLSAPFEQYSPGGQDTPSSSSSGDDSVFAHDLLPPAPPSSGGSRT

Sequence	phosphorylation enrichment
AHAGEYGAEAL [HBA1_Y25]	0.517
ENELTYFCFKK [CD59_Y86_C89Y_YF]	1.29
QNTGYYYDLYG [PTPN11_Y62_D61Y]	17.8
SGPRRYTIAAL [TTR_Y125]	0.419
CSEEMYCLMLQ [RET_Y981_R982C]	2.76
MSLDQYSPSFP [FGFR1_Y776_P772S]	0.549
QQTYTYDSGIH [JUP_Y22]	1.38
KNKKDYFDMFE [SLC26A3_Y526_YF]	2.62
KNEVLYDGENH [ARFGEF1_Y314]	0.475
WVYNHYRWFIW [BRCA2_Y2624_I2627F]	0.667
EQWRAYLEGTC [HLA-C_Y183_L180W]	0.951
DSRRDYVSQFE [APOA1_Y53_G50R]	0.503
YIILIYAMKKK [SLCO1B1_Y645]	0.692
VDSTEYEVASQ [SLC7A7_Y7]	0.776
NVPILYTASQA [CTNNA1_Y222]	0.501
LARDMHDKEYY [MET_Y1230_Y1230H]	0.589
CTTIHYNFMCI [TP53_Y234_N239I_YF]	0.707

Sequence	phosphorylation enrichment
FVHDNYVIQRT [CPS1_Y1450_R1453Q]	0.567
EFTPLYPMLFG [SCLY_Y280]	9.26
SKQGKYLNWDA [ATM_Y54]	0.527
GKFHMYVAVWT [F13A1_Y161_R159H]	0.669
NKKHHYRELPV [ERN2_Y860]	2.45
VGGRIYTDDGL [PKLR_Y218_I219T]	0.612
GGKFSYLKVGH [GRM3_Y480_YF]	0.519
RIVEIYTRRLQ [GCH1_Y175_S176T]	0.632
FKEDPYLVVNP [MCM6_Y810_E806K_YF]	0.89
SPDMLYQYLKQ [RPAP3_Y567]	2.04
LTSKPYAFTAR [NDUFS1_Y236]	1.36
KPGLKYVTYGN [GALNTL5_Y404]	0.409
GESKDYALHVG [SVIL_Y185]	0.532
NPQKPYFIRLF [WAS_Y83_S82P_YF]	0.637
GFILMYDITNE [RAB3C_Y110]	0.975
KKCTTYIDCDL [ASPA_Y64_R63T]	0.665

The sequences below were run on c-Src in the same assay as above.

Sequence	phosphorylation enrichment
AHAGEYGAEAL [HBA1_Y25]	0.392
ENELTYFCFKK [CD59_Y86_C89Y_YF]	4.58
QNTGYYYDLYG [PTPN11_Y62_D61Y]	7.11
SGPRRYTIAAL [TTR_Y125]	0.498
CSEEMYCLMLQ [RET_Y981_R982C]	2.26
MSLDQYSPSFP [FGFR1_Y776_P772S]	0.454
QQTYTYDSGIH [JUP_Y22]	1.41
KNKKDYFDMFE [SLC26A3_Y526_YF]	0.524
KNEVLYDGENH [ARFGEF1_Y314]	0.418
WVYNHYRWFIW [BRCA2_Y2624_I2627F]	0.433
EQWRAYLEGTC [HLA-C_Y183_L180W]	0.398
DSRRDYVSQFE [APOA1_Y53_G50R]	0.43
YIILIYAMKKK [SLCO1B1_Y645]	0.363
VDSTEYEVASQ [SLC7A7_Y7]	0.514
NVPILYTASQA [CTNNA1_Y222]	0.418
LARDMHDKEYY [MET_Y1230_Y1230H]	0.425
CTTIHYNFMCI [TP53_Y234_N239I_YF]	0.434

Sequence	phosphorylation enrichment
FVHDNYVIQRT [CPS1_Y1450_R1453Q]	0.481
EFTPLYPMLFG [SCLY_Y280]	0.475
SKQGKYLNWDA [ATM_Y54]	0.445
GKFHMYVAVWT [F13A1_Y161_R159H]	0.368
NKKHHYRELPV [ERN2_Y860]	0.996
VGGRIYTDDGL [PKLR_Y218_I219T]	0.306
GGKFSYLKVGH [GRM3_Y480_YF]	0.411
RIVEIYTRRLQ [GCH1_Y175_S176T]	1.01
FKEDPYLVVNP [MCM6_Y810_E806K_YF]	1.98
SPDMLYQYLKQ [RPAP3_Y567]	1.96
LTSKPYAFTAR [NDUFS1_Y236]	0.534
KPGLKYVTYGN [GALNTL5_Y404]	0.363
GESKDYALHVG [SVIL_Y185]	0.416
NPQKPYFIRLF [WAS_Y83_S82P_YF]	0.373
GFILMYDITNE [RAB3C_Y110]	0.559
KKCTTYIDCDL [ASPA_Y64_R63T]	0.415

Each sequence was assayed against EPHB1 (UniProt P54762) in the same assay as above.
Chain of EPHB1 (P54762 whole entry, looked up): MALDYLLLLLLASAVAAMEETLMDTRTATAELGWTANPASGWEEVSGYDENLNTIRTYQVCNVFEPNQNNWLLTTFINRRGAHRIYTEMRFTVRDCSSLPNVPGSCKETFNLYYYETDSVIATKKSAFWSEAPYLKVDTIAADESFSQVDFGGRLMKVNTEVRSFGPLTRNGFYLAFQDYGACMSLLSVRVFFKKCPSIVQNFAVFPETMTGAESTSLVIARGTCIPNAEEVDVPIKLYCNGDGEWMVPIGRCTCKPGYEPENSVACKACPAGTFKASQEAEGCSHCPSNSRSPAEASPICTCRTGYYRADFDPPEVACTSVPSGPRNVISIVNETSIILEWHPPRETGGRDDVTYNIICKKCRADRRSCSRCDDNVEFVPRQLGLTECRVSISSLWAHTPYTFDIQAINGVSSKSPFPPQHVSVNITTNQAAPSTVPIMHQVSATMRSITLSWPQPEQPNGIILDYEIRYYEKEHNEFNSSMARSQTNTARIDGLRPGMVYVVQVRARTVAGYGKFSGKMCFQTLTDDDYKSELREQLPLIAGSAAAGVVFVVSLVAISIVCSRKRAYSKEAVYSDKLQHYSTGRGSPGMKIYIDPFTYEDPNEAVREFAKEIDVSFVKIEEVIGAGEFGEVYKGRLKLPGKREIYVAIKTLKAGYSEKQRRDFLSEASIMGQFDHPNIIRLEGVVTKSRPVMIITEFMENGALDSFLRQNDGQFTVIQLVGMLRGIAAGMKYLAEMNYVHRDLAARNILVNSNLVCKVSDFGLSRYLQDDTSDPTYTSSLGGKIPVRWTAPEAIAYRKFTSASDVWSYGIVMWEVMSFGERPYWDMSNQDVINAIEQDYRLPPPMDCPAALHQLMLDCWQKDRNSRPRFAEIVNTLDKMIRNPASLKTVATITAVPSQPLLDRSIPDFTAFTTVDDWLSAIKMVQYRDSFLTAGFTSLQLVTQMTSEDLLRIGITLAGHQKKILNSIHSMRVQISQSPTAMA

Sequence	phosphorylation enrichment
AHAGEYGAEAL [HBA1_Y25]	0.368
ENELTYFCFKK [CD59_Y86_C89Y_YF]	0.796
QNTGYYYDLYG [PTPN11_Y62_D61Y]	18.4
SGPRRYTIAAL [TTR_Y125]	0.444
CSEEMYCLMLQ [RET_Y981_R982C]	1.02
MSLDQYSPSFP [FGFR1_Y776_P772S]	0.374
QQTYTYDSGIH [JUP_Y22]	1.09
KNKKDYFDMFE [SLC26A3_Y526_YF]	0.779
KNEVLYDGENH [ARFGEF1_Y314]	0.403
WVYNHYRWFIW [BRCA2_Y2624_I2627F]	0.506
EQWRAYLEGTC [HLA-C_Y183_L180W]	0.648
DSRRDYVSQFE [APOA1_Y53_G50R]	0.456
YIILIYAMKKK [SLCO1B1_Y645]	0.486
VDSTEYEVASQ [SLC7A7_Y7]	0.632
NVPILYTASQA [CTNNA1_Y222]	0.432
LARDMHDKEYY [MET_Y1230_Y1230H]	0.469
CTTIHYNFMCI [TP53_Y234_N239I_YF]	0.621

Sequence	phosphorylation enrichment
FVHDNYVIQRT [CPS1_Y1450_R1453Q]	2.19
EFTPLYPMLFG [SCLY_Y280]	0.59
SKQGKYLNWDA [ATM_Y54]	0.384
GKFHMYVAVWT [F13A1_Y161_R159H]	0.491
NKKHHYRELPV [ERN2_Y860]	0.855
VGGRIYTDDGL [PKLR_Y218_I219T]	0.412
GGKFSYLKVGH [GRM3_Y480_YF]	0.409
RIVEIYTRRLQ [GCH1_Y175_S176T]	0.503
FKEDPYLVVNP [MCM6_Y810_E806K_YF]	0.441
SPDMLYQYLKQ [RPAP3_Y567]	3.35
LTSKPYAFTAR [NDUFS1_Y236]	0.617
KPGLKYVTYGN [GALNTL5_Y404]	0.38
GESKDYALHVG [SVIL_Y185]	1.92
NPQKPYFIRLF [WAS_Y83_S82P_YF]	0.633
GFILMYDITNE [RAB3C_Y110]	1.06
KKCTTYIDCDL [ASPA_Y64_R63T]	0.48
